Test results: patent US20240182561A1 (Regeneron, published 2024)
Where two headings read alike, the source gives them in different places.

T1: mouse CACNG1 expressed on cells (mouse, UniProt O70578 1-223)
T1 construct: whole, on cells; Transfected in HEK293/mCACNG1; endogenous in C2C12 myotubes and wildtype mouse myofibers; Each row names the cell type under assay; also called mCACNG1; HEK293/mCACNG1
T1 sequence (looked up): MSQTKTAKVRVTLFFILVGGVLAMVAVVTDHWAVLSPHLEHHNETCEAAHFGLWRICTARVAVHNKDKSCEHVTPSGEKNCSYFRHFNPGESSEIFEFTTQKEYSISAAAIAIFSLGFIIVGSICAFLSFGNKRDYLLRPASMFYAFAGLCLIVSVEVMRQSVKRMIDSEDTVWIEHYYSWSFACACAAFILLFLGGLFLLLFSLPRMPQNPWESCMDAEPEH

B1: REGN10712 (antibody, human IgG4 S228P, lambda, V domains shown)
VH: QVQLVESGGGVVQPGRSLRLSCAASGFTFSTYGMYWVRQTPGKGLEWVTVISFDGNKKYYADSVKGRFTISRDNSKNTLFLQMNSLKTEDTAVYYCAKSSNWNYGSFDIWGQGTMVTVSS
VL: QSVLTQPPSVSGAPGQRVTISCTGSSSNIGAGYDVHWYQQLPGTAPRLLISYNSNRPSGVPDRFSGSKSGTSASLAITGLQAEDEADYYCQSYDRSLSGSVFGGGTQLTVLG
notes: hIgG4
B2: REGN14572 (antibody, human IgG1, kappa, N297Q)
heavy: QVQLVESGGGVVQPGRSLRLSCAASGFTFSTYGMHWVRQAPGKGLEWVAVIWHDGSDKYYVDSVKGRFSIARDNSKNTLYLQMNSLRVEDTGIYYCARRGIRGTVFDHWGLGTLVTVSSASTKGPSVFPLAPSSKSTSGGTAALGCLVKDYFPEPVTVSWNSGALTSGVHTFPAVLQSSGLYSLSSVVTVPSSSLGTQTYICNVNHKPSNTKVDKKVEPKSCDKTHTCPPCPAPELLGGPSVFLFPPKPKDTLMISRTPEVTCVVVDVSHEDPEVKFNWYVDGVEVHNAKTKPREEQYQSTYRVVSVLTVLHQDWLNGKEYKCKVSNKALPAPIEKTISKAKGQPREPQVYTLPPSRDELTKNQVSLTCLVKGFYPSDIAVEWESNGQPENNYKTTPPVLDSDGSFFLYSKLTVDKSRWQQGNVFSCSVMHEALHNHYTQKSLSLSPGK
light: DIQMTQSPSTLSASVGDRVTLTCRASQSISNKLAWYQQKPGKAPNLLIYKASNLESGVPSRFSGSGSGTEFTLTISSLQPDDFATYYCQQYNSYSWTFGQGTKVEIKRTVAAPSVFIFPPSDEQLKSGTASVVCLLNNFYPREAKVQWKVDNALQSGNSQESVTEQDSKDSTYSLSSTLTLSKADYEKHKVYACEVTHQGLSSPVTKSFNRGEC
B3: REGN10716 (antibody, human IgG4 S228P, kappa)
heavy: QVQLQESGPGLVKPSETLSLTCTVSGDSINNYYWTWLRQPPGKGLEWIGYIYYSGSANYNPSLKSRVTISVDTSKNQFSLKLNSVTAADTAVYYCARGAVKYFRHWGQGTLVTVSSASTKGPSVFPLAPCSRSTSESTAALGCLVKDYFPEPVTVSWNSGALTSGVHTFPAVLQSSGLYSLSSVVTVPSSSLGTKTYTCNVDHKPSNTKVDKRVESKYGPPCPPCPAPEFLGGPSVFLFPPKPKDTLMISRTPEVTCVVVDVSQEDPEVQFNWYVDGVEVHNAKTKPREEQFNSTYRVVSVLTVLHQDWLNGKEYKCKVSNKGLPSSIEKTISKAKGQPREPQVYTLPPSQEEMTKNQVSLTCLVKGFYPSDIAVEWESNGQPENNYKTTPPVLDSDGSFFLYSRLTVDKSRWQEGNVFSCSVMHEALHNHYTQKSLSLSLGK
light: EIVLTQSPGTLSLSPGERATLSCRASQTINHNNLAWYQQRPGQAPRLLIYGASNRATAIPDRFSGSGSGTDFTLTISRLEPEDFEVYSCQQYGSLPLTFGGGTKVEIKRTVAAPSVFIFPPSDEQLKSGTASVVCLLNNFYPREAKVQWKVDNALQSGNSQESVTEQDSKDSTYSLSSTLTLSKADYEKHKVYACEVTHQGLSSPVTKSFNRGEC
notes: hIgG4
B4: REGN14571-M3004 (antibody, human IgG1, kappa, N297Q)
heavy chain: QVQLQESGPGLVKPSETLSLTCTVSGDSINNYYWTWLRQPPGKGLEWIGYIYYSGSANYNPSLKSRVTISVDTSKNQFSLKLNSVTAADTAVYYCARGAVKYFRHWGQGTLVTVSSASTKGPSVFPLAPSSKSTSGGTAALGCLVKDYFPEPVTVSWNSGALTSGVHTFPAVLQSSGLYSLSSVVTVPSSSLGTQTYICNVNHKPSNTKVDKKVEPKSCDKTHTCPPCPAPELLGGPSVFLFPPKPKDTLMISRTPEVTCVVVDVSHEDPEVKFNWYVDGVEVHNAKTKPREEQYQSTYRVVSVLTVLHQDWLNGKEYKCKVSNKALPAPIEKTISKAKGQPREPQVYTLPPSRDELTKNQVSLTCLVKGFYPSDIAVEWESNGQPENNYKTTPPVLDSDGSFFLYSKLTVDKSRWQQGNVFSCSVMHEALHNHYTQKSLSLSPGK
light chain: B3 light
modifications: N297Q; DHT linker-payload M3004 conjugated, DAR about 4
B5: REGN9908 (antibody, mouse IgG2b, V domains shown)
VH: EVQLLESGGGLAQPGGSLRLSCAASGFTFSSYAMSWVRQAPGKGLEWVSSVSGSGGTTYYAASVKGRFTVSRDNSKKTLYLQMNSLRAEDTAVYYCGKGGYCSSSGCRHYGMDVWGQGTTVTVSA
VL: QSVLTQPPSASGTPGQRVAISCSGSNSNIGNNYLYWYQQIPGTTPKLLIYRNNQRPSGVPDRFSASKSGTSASLAISGLRSGDEADYYCAAWDDSLSGYVFGTGTKVTVLG
notes: mIgG2b
B6: H2aM31929N (antibody, V domains shown)
VH: QVQLVESGGGVVQPGRSLRLSCTASGITFRNYGMHWVRQAPGKGLEWVAVMWYDGSNKYYADSVKGRFTISGDNSKVYLQMNSLRAEDTAVYYCARRGTIRTAAPFDYWGQGTLVTVSS
VL: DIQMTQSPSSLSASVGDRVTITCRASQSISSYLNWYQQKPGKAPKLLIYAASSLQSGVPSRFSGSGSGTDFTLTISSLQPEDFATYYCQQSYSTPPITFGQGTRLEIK
notes: also called H2aM31929N/REGN10728 (lot H2aM31929N-L1)

What was measured:
[1] = biological target: T2, human CACNG1 expressed on cells (human, UniProt Q06432 1-222); experiment: imaging cell binding, HuSKM myotubes
T2 construct: also called hCACNG1; HEK293/hCACNG1
Method: (§1) HuSKM were seeded in collagen-coated 96-well plates (Greiner Bio-One #655956) at 8,500 cells/well and grown for 24 hours. The growth media was changed to MyoTonic Differentiation Media (Cook Myosite Cat #MD-5555) and replaced every 2 days. Myotubes were assayed after 6 days of differentiation. C2C12 mouse myoblasts were maintained in DMEM with 10% FBS and 1% penicillin-streptomycin supplement and grown in a 37° C. incubator with 5% CO₂. C2C12 cells were seeded in collagen-coated 96-well plates (Greiner Bio-One #655956) at 10,000 cells/well for the cell binding assay and 5,000 cells/well for the cell killing assay. After 24 hours, growth media was replaced with differentiation media (DMEM with 2% horse serum) and placed in a 37° C. incubator with 7.5% CO₂. C2C12 myotubes were assayed after 3 days of differentiation. HEK293/hCACNG1, HEK293/mCACNG1, and HEK293 cells were seeded at 10,000 cells (cell binding assay) or 2,000 (cell killing assay) per well in 96-well black collagen coated plates (Greiner Bio-One, cat #655956) in complete growth media and grown overnight at 37° C. in 5% CO₂.
(§2) Relative binding of anti-CACNG1 antibodies was assessed across the entire panel of cell lines via imaging analysis. […] After one wash with antibody dilution buffer, samples were fixed in CytoFix (BD Biosciences, Cat #554655) diluted 1:1 in PBS and supplemented with a 1:2000 dilution of Hoechst 33342 (Thermo, Cat #H1399) for 20 minutes on ice. Images were acquired with a 10× objective on the Opera Phenix (Perkin Elmer) and relative fluorescence units (RFU) was determined using Harmony software (Perkin Elmer).

[2] = biological target: T1, mouse CACNG1 expressed on cells; experiment: imaging cell binding, C2C12 mouse myotubes
Method: as §1, §2

[3] = biological target: T3, nanodisc embedded human CACNG1 expressed with a C-terminal PADRE-Flag-His tag (human, UniProt Q06432 1-222); experiment: SPR, anti-His-captured nanodisc, 25 C
T3 construct: Captured on an anti-His Biacore surface; also called human CACNG1 nanodisc; CACNG1 nanodisc; not shown: C-terminal tag
Method: Equilibrium dissociation constants (KD values) for nanodisc embedded human CACNG1 expressed with a C-terminal […] tag (human CACNG1 nanodisc; concentration 0.82 mg/ml) binding to purified anti-CACNG1 antibodies were determined using a real-time surface plasmon resonance biosensor technology with a Biacore T200 instrument. The CM5 Biacore sensor surface was derivatized by amine coupling with a monoclonal mouse anti-His antibody (Cytiva; Marlborough, MA). All Biacore binding studies were performed in a buffer composed of 0.01M HEPES, 0.15M NaCl, 1 mM CaCl₂, 0.5 mM MgCl₂, pH 7.4 (HBS-N++ running buffer). Different concentrations of anti-CACNG1 antibodies (ranging from 300 nM to 12 nM in 5-fold serial dilutions) prepared in HBS-N++ running buffer were injected over the captured human CACNG1 nanodisc at a flow rate of 30 μL/minute. Antibody association was monitored for 2 minutes while dissociation was monitored in HBS-N++ running buffer for 5 minutes. At the end of each cycle, the human CACNG1 nanodisc capture surface was regenerated using three 10 second injections of 10 mM Gly pH1.5. All binding kinetics experiments were performed at 25° C.
The specific SPR-Biacore sensorgrams were obtained by a double referencing procedure. The double referencing was performed by first subtracting the signal of each injection over a reference surface (anti-His) from the signal over the experimental surface (anti-His captured human CACNG1 nanodisc) thereby removing contributions from refractive index changes. In addition, running buffer injections were performed to allow subtraction of the signal changes resulting from the dissociation of captured antibodies from the coupled anti-His surface. Kinetic association (kₐ) and dissociation ([…]) rate constants were determined by fitting the real-time sensorgrams to a 1:1 binding model using Scrubber v2.0c curve fitting software. Binding dissociation equilibrium constants (KD) and dissociative half-lives (t %) were calculated from the kinetic rate constants as: […]

[4] = biological target: T2, human CACNG1 expressed on cells; experiment: cell-based or functional assay
[5] = biological target: T2, human CACNG1 expressed on cells; experiment: cell-based or functional assay; remark: listed apart in the source
[6] = biological target: T2, human CACNG1 expressed on cells; experiment: cell-based or functional assay; remark: listed apart in the source
[7] = biological target: T1, mouse CACNG1 expressed on cells; experiment: imaging cell binding, C2C12 mouse myotubes; remark: listed apart in the source
Method: as §1, §2

[8] = biological target: T2, human CACNG1 expressed on cells; experiment: imaging cell binding, HEK293/hCACNG1
Method: as §1, §2

[9] = biological target: T2, human CACNG1 expressed on cells; experiment: imaging cell binding, HEK293/hCACNG1; remark: listed apart in the source
Method: as §1, §2

[10] = biological target: T2, human CACNG1 expressed on cells; experiment: imaging cell binding, HuSKM myotubes; remark: listed apart in the source
Method: as §1, §2

[11] = biological target: T1, mouse CACNG1 expressed on cells; experiment: imaging cell binding, HEK293/mCACNG1
Method: as §1, §2

[12] = biological target: T2, human CACNG1 expressed on cells; experiment: cell-based or functional assay; remark: listed apart in the source
[13] = biological target: T1, mouse CACNG1 expressed on cells; experiment: cell-based or functional assay
[14] = biological target: T2, human CACNG1 expressed on cells; experiment: cell-based or functional assay; remark: listed apart in the source

T3 sequence (Q06432 whole entry): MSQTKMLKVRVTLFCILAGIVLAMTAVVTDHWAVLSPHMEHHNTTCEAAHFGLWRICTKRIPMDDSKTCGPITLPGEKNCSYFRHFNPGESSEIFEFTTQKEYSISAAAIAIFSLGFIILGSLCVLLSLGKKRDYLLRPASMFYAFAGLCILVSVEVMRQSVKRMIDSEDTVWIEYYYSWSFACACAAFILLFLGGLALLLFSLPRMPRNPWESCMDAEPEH
T2 sequence (Q06432 whole entry): as above

Binder | EC50 [1] [nM] | S/N [1] [fold] | EC50 [2] [nM] | S/N [2] [fold] | Kd [3] [nM] | koff [3] [s⁻¹] | kon [3] [M⁻¹ s⁻¹] | mAb bound at 300 nM [3] [RU] | t1/2 [3] [min] | S/N [7] [fold] | EC50 [9] [nM] | S/N [9] [fold] | EC50 [10] [nM] | S/N [10] [fold] | S/N [11] [fold] | % KILL, indirect cell killing, HEK293/hCACNG1 [12] [%] | % KILL, indirect cell killing, HuSKM [12] [%] | EC50/IC50, indirect cell killing, HEK293/hCACNG1 [12] [nM] | EC50/IC50, indirect cell killing, HuSKM [12] [nM] | % KILL, indirect cell killing, C2C12 [13] [%] | further results
B1 | 0.053 | 102 | > 100 | 8.6 | 4.53 | 0.00332 | 733000 | 31 | 3.5 |  |  |  |  |  |  |  |  |  |  |  | 
B2 |  |  |  |  |  |  |  |  |  |  |  |  |  |  |  |  |  |  |  |  | EC50 of androgen receptor luciferase reporter activation (RLU) by the DHT conjugate REGN14572-M3004 in hCACNG1.AR.Luc LNCaP cells, 48 hours; concentration adjusted for DAR [4]: 11.9 nM; EC50 of androgen receptor luciferase reporter activation (RLU) by the DHT conjugate REGN14572-M3004 in hCACNG1.AR.Luc LNCaP cells, 24 hours; concentration adjusted for DAR [5]: 11.2 nM; EC50 of androgen receptor luciferase reporter activation (RLU) by the DHT conjugate REGN14572-M3004 in hCACNG1.AR.Luc LNCaP cells, 72 hours; concentration adjusted for DAR [6]: 10.3 nM
B3 | 12 | 81.1 | > 100 | 5.2 | 0.114 | 8.36e-05 | 730000 | 31 | 138 | 6.3 | > 100 | 35.9 | 13 | 466 | 21.4 | 95.1 | 61.7 | 0.00295 | 0.34 | 99.9 | EC50 [7]: > 100 nM; EC50 [8]: > 100 nM; S/N [8]: 2.2 fold; EC50 [11]: > 100 nM; % KILL, indirect cell killing, HEK293/mCACNG1 [13]: 91.2%; EC50/IC50, indirect cell killing, C2C12 [13]: 0.0167 nM; EC50/IC50, indirect cell killing, HEK293/mCACNG1 [13]: 0.00893 nM
B4 |  |  |  |  |  |  |  |  |  |  |  |  |  |  |  |  |  |  |  |  | EC50 of androgen receptor luciferase reporter activation (RLU) by the DHT conjugate REGN14571-M3004 in hCACNG1.AR.Luc LNCaP cells, 48 hours; concentration adjusted for DAR [4]: 6.95 nM; EC50 of androgen receptor luciferase reporter activation (RLU) by the DHT conjugate REGN14571-M3004 in hCACNG1.AR.Luc LNCaP cells, 24 hours; concentration adjusted for DAR [5]: 7.83 nM; EC50 of androgen receptor luciferase reporter activation (RLU) by the DHT conjugate REGN14571-M3004 in hCACNG1.AR.Luc LNCaP cells, 72 hours; concentration adjusted for DAR [6]: 5.44 nM
B5 |  |  |  |  | 9.57 | 0.00402 | 419000 | 21 | 2.9 |  |  |  | 14.8 | 164 |  |  |  |  |  |  | EC50/IC50, indirect cell killing, HuSKM [14]: 0.0859 nM
B6 |  |  |  |  | 0.745 | 0.000559 | 750000 | 25 | 20.7 | 1.2 | 6.2 | 84 | 1.9 | 252 | 1 | 95 | 96.3 | 0.00277 | 0.031 | 7.5 | binding result [7]: no binding (tested: 100 nM highest tested); % KILL, indirect cell killing, HEK293/mCACNG1 [13]: 18.3%; EC50/IC50, indirect cell killing, C2C12 [13]: > 10 nM; EC50/IC50, indirect cell killing, HEK293/mCACNG1 [13]: > 1 nM
